Measurements as given in PMC3082517 (PLoS Biology, 2011).

Columns and labels:
[1] = biological target: T1, TrkA (Rattus norvegicus, UniProt P35739); assay: TrkA phosphorylation in HEK293^TrkA transfectants (anti-tyrosine IP, Western blot); assay type: cell-based; parameters: expressed in transfected cells; host or cells: HEK293; details: 10 min (and 20 min), steroids 100 nM, NGF 100 ng/ml
Method: (§1) HEK293 cells were transfected with the appropriate plasmids (TrkA, p75^NTR, RIP2, TRAF-6, and RhoGDI) by using Lipofectamine 2000 (Invitrogen). Cells were harvested 48 h after transfection and suspended in lysis buffer (50 mM Tris-HCl, 0.15 M NaCl, 1% Triton-X100, pH 7.4) supplemented with protease inhibitors. Lysates were precleared for 1 h with Protein A-Sepharose beads (Amersham) and immunoprecipitated with the appropriate antibody (pTyr, Flag, or c-myc) overnight at 4°C. Protein A Sepharose beads were incubated with the lysates for 4 h at 4°C with gentle shaking. […] Beads were collected by centrifugation, washed four times with lysis buffer, and resuspended in SDS loading buffer. Proteins were separated by SDS/PAGE, followed by immunoblotting with specific antibodies.
(§2) PC12 or HEK293 cells lysates were electrophoresed through a 12% SDS-polyacrylamide gel, and then proteins were transferred to nitrocellulose membranes, which were processed according to standard Western blotting procedures, as previously described. To detect protein levels, membranes were incubated with the appropriate antibodies: Bcl-2 (dilution 1∶500), phospho TrkA (dilution 1∶500), total TrkA (dilution1∶500), p75^NTR (dilution 1∶500), phospho Shc (dilution 1∶1000), total Shc (dilution 1∶1000), phospho Akt (dilution 1∶500), total Akt (dilution 1∶500), phospho ERK1/2 (dilution 1∶500), and total ERK1/2 (dilution 1∶500). Proteins were visualized using the ECL Western blotting kit (ECL Amersham Biosciences, UK), and blots were exposed to Kodak X-Omat AR films. A PC-based Image Analysis program was used to quantify the intensity of each band (Image Analysis, Inc., Ontario, Canada).
(§3) To normalize for protein content the blots were stripped and stained with GAPDH antibody (dilution 1∶1000); the concentration of each target protein was normalized versus GAPDH. Where phosphorylation of TrkA or kinases was measured, membranes were first probed for the phosphorylated form of the protein, then stripped, and probed for the total protein.

[2] = biological target: p75^NTR receptor; parameters: method as in PMID 16939974; details: read-out: KD of NGF binding to p75NTR receptor; cited from earlier work
[3] = tested on: p75^NTR; assay: p75NTR protein levels in serum deprived PC12 cells (immunoblotting); assay type: cell-based; details: serum deprived PC12, between 24 and 48 h; 100 nM DHEA, 100 ng/ml NGF; n = 5, p<0.01
Method: as §2, §3

[4] = tested on: nnr5 cells; assay: Apoptosis of nnr5 cells (PC12 clone expressing only p75NTR); assay type: cell-based; details: DHEA 100 nM, NGF 100 ng/ml
Method: PC12 cells were obtained from LGC Promochem (LGC Standards GmbH, Germany) and nnr5 cells from Dr. C.F. Ibáñez (Karolinska Institute). Both cell types were grown in RPMI 1640 containing 2 mM L-glutamine, 15 mM HEPES, 100 units/ml penicillin, 0.1 mg/ml streptomycin, and 10% horse serum, 5% fetal calf serum (both charcoal-stripped for removing endogenous steroids) at 5% CO2 and 37°C. HEK-293 cells were obtained from LGC Promochem. Cells were grown in DMEM medium containing 10% fetal bovine serum (charcoal-stripped for removing endogenous steroids), 100 units/ml penicillin, and 0.1 mg/ml streptomycin, at 5% CO2 and […]. HEK-293 and PC12 cells were transfected with Lipofectamine 2000 (InVitrogen) according to manufacturer's instructions. Transfected cells were typically used on the 2nd day after transfection.
PC12 cells were cultured in 12-well plates, and 24 h later they were transfected with the si/shRNAs for TrkA and/or p75^NTR. […] Apoptosis was quantified 24 h later with annexin V-FITC and PI (BD Pharmingen) according to our protocol.

[5] = biological target: T2, p75^NTR with effectors TRAF6, RIP2, RhoGDI (Rattus norvegicus, UniProt P07174); assay: Co-immunoprecipitation of p75NTR with effectors TRAF6, RIP2, RhoGDI in co-transfected HEK293 cells; assay type: cell-based; details: co-transfected HEK293, 30 min; 100 nM DHEA, 100 ng/ml NGF
T2 construct: expressed in transfected cells; host or cells: HEK293
T2 sequence (P07174 30-425): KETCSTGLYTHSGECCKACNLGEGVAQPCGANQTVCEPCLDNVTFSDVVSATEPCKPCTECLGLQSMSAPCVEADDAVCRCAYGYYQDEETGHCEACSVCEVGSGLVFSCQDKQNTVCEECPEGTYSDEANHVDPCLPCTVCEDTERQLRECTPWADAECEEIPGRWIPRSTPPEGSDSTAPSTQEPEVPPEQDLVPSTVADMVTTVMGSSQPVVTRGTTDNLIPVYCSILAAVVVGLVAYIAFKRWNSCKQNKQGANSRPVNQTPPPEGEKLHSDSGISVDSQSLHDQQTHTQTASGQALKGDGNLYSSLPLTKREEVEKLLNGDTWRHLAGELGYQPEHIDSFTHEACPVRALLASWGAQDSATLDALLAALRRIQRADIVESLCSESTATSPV
Method: as §1

[6] = biological target: T1, TrkA; assay: Tyr490 TrkA phosphorylation in naive PC12 cells (Western blot); assay type: cell-based; parameters: PC12 cells, endogenously expressing TrkA receptors; endogenous in cells; host or cells: PC12; details: 10 min, DHEA 100 nM, NGF 100 ng/ml
Method: as §2, §3

[7] = tested on: PC12 cell membranes; assay: [3H]-DHEA displacement, PC12 cell membranes; assay type: binding; details: unpublished data
Method: HEK293 cells transfected with an empty vector (HEK293-Vector) or overexpressing p75^NTR (HEK293-p75) or TrkA (HEK293-TrkA), and PC12 cells wild type or shRNA knocked down for p75^NTR and TrkA, were cultured, collected by scraping on ice and washed twice with cold Phosphate Buffer Saline (PBS), pH 7.4. After centrifugation at 1,200 rpm, cells were homogenized in a 50 mM Tris-HCl buffer, pH 7.4 (at 4°C), containing freshly added protease inhibitors (1 mM PMSF and 1 µg/ml aprotinin). Crude membrane fractions were isolated by differential centrifugation at 2,500×g (10 min at 4°C, to remove unbroken cells and nuclei) and 102,000×g (1 h, at 4°C). Membranes were washed once with ice-cold 50 mM Tris–HCl buffer, pH 7.4, and re-suspended in the same buffer. […]
Membranes were incubated for 30 min at 25°C or overnight at 4°C, on a rotating plate; then they were collected on GF/B filters, prewetted in 0.5% PEI solution at 4°C. Filters were washed three times with ice-cold PBS, dried, and counted in scintillation fluid (SigmaFluor, Sigma) in a scintillation counter (Perkin Elmer, Foster City, CA) with 60% efficiency for Tritium. For saturation curves, specific binding (Bound, B) was calculated as the difference of Total Binding − Non Specific Binding. KDs were calculated from B/F over B Scatchard plots. […]

[8] = biological target: TrkA receptor; parameters: method as in PMID 16939974; details: read-out: KD of NGF binding to TrkA receptor; cited from earlier work
[9] = tested on: TrkA; assay: TrkA protein levels in serum deprived PC12 cells (immunoblotting); assay type: cell-based; details: serum deprived PC12, 12 to 48 h; 100 nM DHEA, 100 ng/ml NGF; n = 5, p<0.01
Method: as §2, §3

[10] = tested on: Shc, ERK1/2, and Akt kinases; assay: Phosphorylation of Shc, ERK1/2 and Akt kinases in PC12 cells (Western blot); assay type: cell-based; details: serum deprived naive PC12 cells, 10 min; 100 nM DHEA, 100 ng/ml NGF
Method: as §2, §3

T1 sequence (P35739 33-799): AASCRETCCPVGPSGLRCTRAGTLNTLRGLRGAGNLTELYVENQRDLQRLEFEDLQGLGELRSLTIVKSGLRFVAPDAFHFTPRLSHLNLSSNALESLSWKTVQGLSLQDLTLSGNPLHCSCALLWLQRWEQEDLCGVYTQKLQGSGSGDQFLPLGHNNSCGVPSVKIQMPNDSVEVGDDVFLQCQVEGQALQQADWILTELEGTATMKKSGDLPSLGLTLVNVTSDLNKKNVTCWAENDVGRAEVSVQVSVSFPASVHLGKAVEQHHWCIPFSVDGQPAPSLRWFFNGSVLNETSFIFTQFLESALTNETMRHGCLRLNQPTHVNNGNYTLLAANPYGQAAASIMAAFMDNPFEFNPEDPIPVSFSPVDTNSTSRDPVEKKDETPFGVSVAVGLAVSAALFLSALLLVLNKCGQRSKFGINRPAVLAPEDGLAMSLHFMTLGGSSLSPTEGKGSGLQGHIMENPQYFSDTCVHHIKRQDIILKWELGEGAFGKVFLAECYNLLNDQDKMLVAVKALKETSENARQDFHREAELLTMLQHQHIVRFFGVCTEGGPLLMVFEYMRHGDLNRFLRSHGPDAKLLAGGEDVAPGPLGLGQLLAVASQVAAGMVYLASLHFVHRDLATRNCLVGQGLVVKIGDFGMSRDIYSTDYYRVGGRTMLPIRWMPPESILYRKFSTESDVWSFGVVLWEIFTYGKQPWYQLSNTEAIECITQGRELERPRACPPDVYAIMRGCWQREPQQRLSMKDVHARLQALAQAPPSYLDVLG

B1: NGF: neurotrophin nerve growth factor (protein)
chain: SSTHPVFHMGEFSVCDSVSVWVGDKTTATDIKGKEVTVLAEVNINNSVFRQYFFETKCRASNPVESGCRGIDSKHWNSYCTTTHTFVKALTTDEKQAAWRFIRIDTACVCVLSRKATRRG
[1]
  phosphorylation of TrkA: strongly increased
[2]
  Kd: 1000 pM
[3]
  p75NTR receptor levels: significantly decreased
[4]
  effect on apoptosis of nnr5 cells: induced apoptosis
[5]
  association of p75NTR with effectors TRAF6 and RIP2: efficiently induced the association
  dissociation of RhoGDI from p75NTR receptors: facilitating the dissociation
[6]
  phosphorylation of TrkA (Tyr490): strongly induced
[7]
  IC50: 920 ± 320 pM
[8]
  Kd: 10 pM
[9]
  TrkA receptor levels: significantly increased
[10]
  phosphorylation of Shc, ERK1/2, and Akt kinases: strongly increased
